Results from publication PMC4102529, “FRET Based Quantification and Screening Technology Platform for the Interactions of Leukocyte Function-Associated Antigen-1 (LFA-1) with InterCellular Adhesion Molecule-1 (ICAM-1)” (PLoS ONE, 2014).

Tested on: LFA-1 (αLβ2)
Assay: Steady-state in-solution FRET binding assay (Alexa Fluor 488-LFA-1 donor / Alexa Fluor 555-D1-D2-Fc acceptor) to determine Kd
Set-up: species or system human
Experimental: In determining the equilibrium dissociation constant (Kd) between the interacting protein pairs, LFA-1 and D1-D2-Fc, from the FRET binding assay, several concentrations of the acceptor conjugate, Alexa Fluor 555-D1-D2-Fc, were added to a fixed concentration of the donor conjugate, Alexa Fluor 488-LFA-1. The donor conjugate concentration was kept constant at 100 nM while the acceptor conjugate concentration was varied from 0 upto 1.6 µM. These FRET mixtures, with different donor-to-acceptor ratios, were excited by 470 and 530 nm. […] The peak intensity at 570 nm has contributions from unquenched donor emissions, direct acceptor emission and the emission of acceptor due to FRET (FFRET). However, when the FRET mixture was excited with 530 nm, only a single peak corresponding to the direct emission of the acceptor (FA) was observed.
Thus, to obtain the absolute maximum FRET emission signal at 570 nm (FFRETmax), we need to quantify each contribution from the donor and acceptor emissions as well as the FRET emission signal (FFRET). […]
In general, the direct emission of Alexa Fluor 488-LFA-1 at 570 nm is expected to be proportional to its emission at 520 nm when excited at 470 nm. […] The calculated value of “b” was 0.101±0.008. […]

B1: D1-D2-Fc: chimeric molecule consisting of the amino-terminal first two Ig domains of human ICAM-1 (D1-D2) fused to IgG1 Fc region (protein)
chain: QTSVSPSKVILPRGGSVLVTCSTSCDQPKLLGIETPLPKKELLLPGNNRKVYELSNVQEDSQPMCYSNCPDGQSTAKTFLTVYWTPERVELAPLPSWQPVGKNLTLRCQVEGGAPRANLTVVLLRGEKELKREPAVGEPAEVTTTVLVRRDHHGANFSCRTELDLRPQGLELFENTSAPYQLQTFVLPATPPQLVSPRVLEVDTQGTVVCSLDGLFPVSEAQVHLALGDQRLNPTVTYGNDSFSAKASVSVTAEDEGTQRLTCAVILGNQSQETLQTVTIYSFPAPNVILTKPEVSEGTEVTVKCEAHPRAKVTLNGVPAQPLGPRAQLLLKATPEDNGRSFSCSATLEVAGQLIHKNQTRELRVLYGPRLDERDCPGNWTWPENSQQTPMCQAWGNPLPELKCLKDGTFPLPIGESVTVTRDLEGTYLCRARSTQGEVTRKVTVNVLSPRYEIVIITVVAAAVIMGTAGLSTYLYNRQRKIKKYRLQQAQKGTPMKPNTQATPP
modifications: Alexa Fluor 555 (succinimidyl ester) on amine groups (amine terminus, ε-amino groups of lysines), random; F/P molar ratio 3.14±0.27; left off: Fc (IgG1), end not stated, kept
notes: chimeric molecule consisting of the amino-terminal first two Ig domains of human ICAM-1 (D1-D2) fused to IgG1 Fc region
maximum FRET emission signal (FFRETmax) (at 570 nm, 100 nM Alexa Fluor 488-LFA-1, Alexa Fluor 555-D1-D2-Fc 0 to 1.6 µM, fit of Eq. (6), adj. R-square = 0.9895): 6.33×10^3 RFU
Kd (steady-state FRET, 100 nM Alexa Fluor 488-LFA-1 fixed, Alexa Fluor 555-D1-D2-Fc 0 to 1.6 µM, PBS, pH 7.4, 1 mM EGTA, 2 mM Mg^2+, 50 µl, 96-well plate, excitation 470 nm, emission 520/570 nm, nonlinear fit Eq. (6), one-to-one, data points mean (rms) of 9 measurements, 3 samples, read-out: dissociation constant (Kd) of the LFA-1/D1-D2-Fc interaction): 17.9 ± 1.34 nM
